# Experiment: soluble on expression in E. coli; label from the status in PepcDB or PDB records
row,Sequence,soluble on expression in E. coli
1,MSLNVGYLCTYTPKELIDAAGFTPIRIFAGDMQISLATAHIQSYACSQARGSLERALRGELDVQAVVFTRCCDTLMRLADIWERNTDMRVYNIEFPTRVEERSKDYYFNELKDFVKVLEEWGGGVTLESLRESLKLYHELEEKLKRLFSLKPDYEAAKRVQEMNVREAIKFVDERLRKAESEGGKPRVLITGSVCPFVEVYTLFEEAGFALKDDICTGTRFFTFNTPPREIGSVDEGLRFLVDKYFEKAPCPTKHFPNDDRFKYILEMAKDCDGVVFLLLKFCEPHFYDYPQLKERLEEMGKKVLLLELEFPIASIEQLRTRIEAFYEVIAEGGSHHHHHH,soluble
2,MSLNVIDLFSGVGGLSLGAARAGFDVKMAVEIDQHAINTHAINFPRSLHVQEDVSLLNAEIIKGFFKNDMPIDGIIGGPPCQGFSSIGKGNPDDSRNQLYMHFYRLVSELQPLFFLAENVPGIMQEKYSGIRNKAFNLVSGDYDILDPIKVKASDYGAPTIRTRYFFIGVKKSLKLDISDEVFMPKMIDPVTVKDALYGLPDIIDANWQSDSESWRTIKKDRKGGFYEKLWGQIPRNVGDTESIAKLKNNIISGCTGTLHSKIVQERYASLSFGETDKISRSTRLDPNGFCPTLRAGTARDKGSFQAVRPIHPYHPRVITPREAARLQGFPDWFRFHVTKWHSFRQIGNSVSPIVAEYILKGLYNLLNKRVQPEYLNHNSLEVREGHHHHHH,soluble
3,MSLNVIMAGIDYTLAPIDIREKFSFTKSTLQAVYNDLLKNENIFGAVIVSTCNRTELYLSCEEGLYINPFELLCDAANFDYEEYSNMHVLRTGVDVIRHLCELACGVKSQIWGEDQIITQVRNAIELAREMNASDSTLEVMFRIAVTSAKKVKTTLKLSSTERSIAYSALKIIKSKENISKALVIGNGEIGRLMASILIENGYDTTITLRRYRHGDNIIPLGAKTIEYVARYEKLKDCDVVISATLSPHYTLEIDKIDRIKYPRLFIDLAVPRDIDPKIKSLDNVELYDLDSIYAGEVDKNRTEQMIQVKKIIDKYIFDYYRWYEYRKRLVLTEGHHHHHH,soluble
4,MSLPASARWQALQEVSILNTGAELPWGGKFSGVAKLIDDAFDAIEKDNEKLKGVLQRISGYAVNEDTLRGLIILFSDTHFTRPTYNGEPVHLGAKDILGHVYEYFLSRFAQAEGKRSGQYFTPKSIVSLIVEMLEPYSGRVYDPAMGSGGFFVQTERFITAHQGNINNVSIYGQEFNPTTWKLAAMNMAIRGIDYDFGKYNADSFTQPQHIDKKMDFIMANPHFNDKEWWNESLADDPRWAYGTPPKGNANFAWLQHMIYHLSPNGKIALLLANGSMSSQTNNEGEIRKAIINADLVECMVALPGQLFTNTKIPACIWFLNRNKKRKGEVLFIDARQIGYMKDRVLRDFTADDIAKIADTLHAWQTSDGYEDQAAFCKSATLEEIKNNDFVLTPGRYVGTAEQEDDGVPFAEKMQNLTALLKEQFAKSAELEAEIKKNLGGLGYEEGHHHHHH,not soluble
5,MSLPFITKISTQKKNTERFNIFLDDKYAFSVDADVLVKFELKKGKELDDLDIIEIQYGDEVKKGFNRALDFLSYRMRSTKEVEDHLKKKETSPPVIAEVIHRLNDYKYLNDQEFAAAYVSTHKKTNGKGPDVLFRELRAKGIDDDTIKEALSSFSFEDQTREAVKHVEKLLKKDKKLSTKELKQRAQLQLQRKGFSFDVISAAMDQIEYENDEDTEKEALRLHAEKAFRKYRYDGSYESAMKVKQFLFRKGFSLDLIEQLLQEEEYEGHHHHHH,soluble
6,MSLPQPKKDKPDTPLRSDAQRNRERILAVATEELTHCANAPLSAIAKKAGVGQGTFYRNFPNREALVLEIYRYGMQQVAEAAPEMLATGEPDLALRQWMDRLAEFAMTKAGLADAIRLVTSAPGAPEKPRPTPLEDAAELLLRANHEAGTIRPGVTGDDFFLVLGGLWLIDPGENWQPRVTRFLDLVMDGLRAGAPGREGHHHHHH,soluble
7,MSLQFFDRKETMKFPSDFIEKYKDLLGAEAEEFFTSFDQEAVSAYRINPLKKQQKDYPDPIPGTPWGYYGKISGKSSDHATGLVYSQEPAAQMVAQVAAPSKGSRVLDLAAAPGGKSTHLLSYVDNTGLLVSNEIDFTRSKVLVENLERFGAKNVVVNHTSADKLAEVFKNYFDMIVFDGPCSGEGMFRKDPDAIQYWHKDYPSELAQLQKDILADGLKMLAPGGQLVYSTCTWSPEENEGVVAWILENYPDLELVAIPKLSGMSDGIDFPETARMYPHHFKGEGQFVAKFQDKRMPEQSCIKEGKTNLNKEQKQLWDDFVKKHLKLPLDGLLQVFGDNLYLLPRGLPDLSKVKIARNGLHLGIFKKKRFEPSFALGIALTSDEVVSSIELTQEQFAQYASGNVVTLDQTLENGWYQLLVDGNGFGFAKVIGNTLKNYYPKGLRFHEGHHHHHH,soluble
8,MSLQFSVLASGSTGNAFYLETEDHAFLVDAGLSGKAMDGLMAQIGRKLDDVDGIFVTHEHSDHIKGLGVVARKYKLPIYANEKTWKAMENQIGKIDTDQKFVFPMETVKSFGGLDVESFGVSHDAAEPMFYVFHYSGRKLALMTDTGYVSDRMKGIIRSANVFVFESNHDVGMLQMGRYPWSIKRRILSDVGHVSNEDAALAMTDVIGDETSRIYLAHLSQDNNMKELARMSVQQTLASKGFVTGETFDLYDTDPKKATPLWLYNFSMLEHHHHHH,not soluble
9,MSLQKRVTDEDIKERLDKIGFRIAVMSGKGGVGKSTVTALLAVHYAKQGKKVGILDADFLGPSIPHLFGLEKGKVAVSDEGLEPVLTQRLGIKVMSIQFLLPKRETPVIWRGPLIAGMIREFLGRVAWGELDYLLIDLPPGTGDAPLTVMQDAKPNGAVIVSTPQELTAAVVEKAITMAEQTKTAVLGIVENMAYFECPNCGERTYLFGEGKASELARKYKIEFITEIPIDSDLLKLSDLGRVEEYEPDWFEFFPYEGGSHHHHHH,soluble
10,MSLQLDEYLRQLAPSMTQWRRDFHLHAESGWLEFRTASKVADILDGLGYQLALGRDVIDADSRMGLPDEETLARAFERAREQGAPERWLPAFEGGFAGVVATLDTGRPGPTLAFRVDMDALDLNEQHDDSHRPHRDHFASCNAGMMHACGHDGHTAIGLGLAHVLKQYAAQLNGVIKLIFQPAEEGTRGARAMVAAGVVDDVDYFTAIHIGTGVPAGTVVCGGDNFMATTKFDVQFSGVAAHAGGKPEDGRNALLAAAQAALGLHAIPPHSAGASRVNVGVMQAGTGRNVVPSSALLKVETRGESEAINQYVFERAQHVVAGAAAMYEARYELRMMGAATASAPSPAWVDYLREQAARVPGVQQAVDRIAAPAGSEDATLMMARVQARGGLASYMIFGTELSAGHHNEKFDFDESVMAVAVETLARVALNFPWQRGVEGHHHHHH,soluble
11,MSLQLEYPLTNHMKRNMVLTKENQVIAYYRIRSETVGLTDFEKKRKTKKKVARTLKRLQENEGFEIVLLPVNADIRGKMGGMRQLVDKENHSVAVDKLMKTAQYLENEIGMVYEYIWLIGVPLVKKERSIDIKETFSTALNNLSEKVVKGLGLEVGVAEDWEEAYKDQEQEVYQNLSELLVERLTEDELYYYQAYQFLNNIQHEKKELLTSQNLDNLLANKITPFRGGLELSNEFGKSYIAHLPLGDCGVTIDGNHLLELVQKMSYPVSVKLQAGFAETKGQLALSGRSARARTRTKNIMEEAHLAGSKQKRKIVEGQHSLDDLDQKIDDDIPIIDWKAVLVISGNSKKQLRERKKNLMNRLDSLGIPLIRATFDNVYLFQATLLGNFQRFSTSNWQHTSTLETFSELNFFTSLHAGTKTGFYLGRVDATLEEKESRKQIVSGSKNIVYMNLLLANKQNIEGKKTNNPHWLVSGDTGNGKSVFSKWLFLYSSLLDVKVLYIDPKKEVRQQFMRTINDPEYQRKYPLDVAFIKTFNFVTLDVRKKENHGVLDPIVLFDETEAIATAKAMLNNINEDKWKMPHKTAINETVAEVVAERKAGKQVGFWHVIERLISHSEKDVHEMGRFLLSTIKGSILELAFSHGEVEGLSFEKKVTILEIEDLDLPTDRHDELDENQRLSVTLMFALGTFCSKFGSRNRKEETVTFFDEAWIFQSSPEGQKILKSMKRIGRSFNNFMVLITQSVNDVLDNGDGTGFGTVVCFDEVDNREGILRYLKLPVNEINLKWVSNMIQGQCLMKDMFNQVNRIVIDVIFEEWLELFETVDEGHHHHHH,soluble
